{
  "source": "paper PMC5180179",
  "about": "“Bacteriophage T5 gene D10 encodes a branch-migration protein”",
  "binders": {"B1": {"name": "Y20-3 (oligo A nicked) (dsDNA)", "DNA 1": "TTCGAAACGTGCGCGCCCAT", "DNA 2": "ACGCCAAGCTTAACGGTGAT", "DNA 3": "ATCACCGTTAAGCTTGGCGTCGAATTCGAGCTCGGTACCC", "DNA 4": "GGGTACCGAGCTCGAATTCGATGGGCGCGCACGTTTCGAA"}, "B2": {"name": "Y20-1 (oligo C nicked) (dsDNA)", "DNA 1": "TTCGAAACGTGCGCGCCCATACGCCAAGCTTAACGGTGAT", "DNA 2": "B1 DNA 3", "DNA 3": "GGGTACCGAGCTCGAATTCG", "DNA 4": "ATGGGCGCGCACGTTTCGAA"}, "B3": {"name": "Y20' (dsDNA)", "DNA 1": "B2 DNA 1 with C18T, A19C, T20G, C22T", "DNA 2": "B1 DNA 3 with G19A, C21A, G22C, A23G", "DNA 3": "GGGTACCGAGCTCGAATCGTCGAGGCGCGCACGTTTCGAA"}, "B4": {"name": "NHJ20 (dsDNA)", "DNA 1": "B2 DNA 1", "DNA 2": "B1 DNA 3", "DNA 3": "GGGTACCGAGCTCGAATTCGTGGGCGGTGCCCAACGCATA", "DNA 4": "TATGCGTTGGGCACCGCCCAATGGGCGCGCACGTTTCGAA"}, "B5": {"name": "Y20 (dsDNA)", "DNA 1": "B2 DNA 1", "DNA 2": "B1 DNA 3", "DNA 3": "B1 DNA 4"}, "B6": {"name": "Y20-2 (oligo B nicked) (dsDNA)", "DNA 1": "B2 DNA 1", "DNA 2": "B1 DNA 4", "DNA 3": "ATCACCGTTAAGCTTGGCGT", "DNA 4": "CGAATTCGAGCTCGGTACCC"}, "B7": {"name": "Y20'' (dsDNA)", "DNA 1": "TTCGAAACGTGCGGAATCATACGGGCGGCTTAACGGTGAT", "DNA 2": "ATCACCGTTAAGCCGCCCGTCGACCAAGAGCTCGGTACCC", "DNA 3": "GGGTACCGAGCTCTTGGTCGATGATTCCGCACGTTTCGAA"}},
  "key": {"D10 helicase (wild type) [1]": {"target": "T1, D10 helicase (wild type) (Bacteriophage T5, UniProt P11107 1-450)", "T1 sequence": "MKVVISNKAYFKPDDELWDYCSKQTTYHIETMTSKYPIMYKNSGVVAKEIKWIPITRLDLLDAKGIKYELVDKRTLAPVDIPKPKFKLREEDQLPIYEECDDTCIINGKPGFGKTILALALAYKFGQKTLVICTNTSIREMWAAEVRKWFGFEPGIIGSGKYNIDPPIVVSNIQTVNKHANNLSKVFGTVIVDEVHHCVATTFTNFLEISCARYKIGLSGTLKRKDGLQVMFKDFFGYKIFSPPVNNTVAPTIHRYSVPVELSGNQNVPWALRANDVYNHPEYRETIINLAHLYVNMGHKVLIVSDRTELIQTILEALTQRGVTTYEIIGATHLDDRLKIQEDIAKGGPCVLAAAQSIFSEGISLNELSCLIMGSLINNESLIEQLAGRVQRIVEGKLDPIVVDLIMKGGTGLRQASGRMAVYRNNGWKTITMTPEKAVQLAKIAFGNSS", "assay": "EMSA with nonspecific competitor DNA; no ATP/Mg2+, 1 mM EDTA; EMSA: 0.1 nM DNA, 20 mM HEPES-NaOH pH 7.5, 135 mM NaCl, 0.1% NP40 alternative, 0.1 mg/ml BSA, 2 mM DTT, 1 mM EDTA, 10% glycerol, 22 °C, 20 min; footprinting the same with 10 nM DNA and no glycerol", "settings": "protein: recombinant; tags: GST tag removed with thrombin; label: 5'-32P; three-way Y-junction, three 20 bp arms, nick in strand A at the junction"}, "D10 helicase (wild type) [2]": {"target": "T1, D10 helicase (wild type)", "assay": "EMSA with nonspecific competitor DNA; affinity similar to Y20; EMSA: 0.1 nM DNA, 20 mM HEPES-NaOH pH 7.5, 135 mM NaCl, 0.1% NP40 alternative, 0.1 mg/ml BSA, 2 mM DTT, 1 mM EDTA, 10% glycerol, 22 °C, 20 min; footprinting the same with 10 nM DNA and no glycerol", "settings": "protein: recombinant, tags: GST tag removed with thrombin, label: 5'-32P, three-way Y-junction, three 20 bp arms"}, "D10 helicase (wild type) [3]": {"target": "T1, D10 helicase (wild type)", "assay": "EMSA with poly d(AT) competitor; no ATP/Mg2+; affinity near identical to Y20; EMSA: 0.1 nM DNA, 20 mM HEPES-NaOH pH 7.5, 135 mM NaCl, 0.1% NP40 alternative, 0.1 mg/ml BSA, 2 mM DTT, 1 mM EDTA, 10% glycerol, 22 °C, 20 min; footprinting the same with 10 nM DNA and no glycerol", "settings": "protein: recombinant; tags: GST tag removed with thrombin; label: 5'-32P; three-way Y-junction, three 20 bp arms"}, "D10 R389N": {"target": "T2, D10 R389N (Bacteriophage T5, UniProt P11107 1-450, R389N)", "T2 sequence": "T1 sequence with R389N", "assay": "EMSA; binding equivalent to wild type; not unwound; EMSA: 0.1 nM DNA, 20 mM HEPES-NaOH pH 7.5, 135 mM NaCl, 0.1% NP40 alternative, 0.1 mg/ml BSA, 2 mM DTT, 1 mM EDTA, 10% glycerol, 22 °C, 20 min; footprinting the same with 10 nM DNA and no glycerol", "settings": "protein: recombinant; tags: GST tag removed with thrombin; label: 5'-32P; four-way non-homologous Holliday junction, four 20 bp arms"}, "D10 helicase (wild type) [4]": {"target": "T1, D10 helicase (wild type)", "assay": "EMSA; EMSA: 0.1 nM DNA, 20 mM HEPES-NaOH pH 7.5, 135 mM NaCl, 0.1% NP40 alternative, 0.1 mg/ml BSA, 2 mM DTT, 1 mM EDTA, 10% glycerol, 22 °C, 20 min; footprinting the same with 10 nM DNA and no glycerol", "settings": "protein: recombinant; tags: GST tag removed with thrombin; label: 5'-32P; four-way non-homologous Holliday junction, four 20 bp arms"}, "D10 helicase (wild type) [5]": {"target": "T1, D10 helicase (wild type)", "assay": "EMSA with poly d(AT) competitor; no ATP/Mg2+; 0.1 nM DNA, 0.4 nM D10 (all substrate bound); EMSA: 0.1 nM DNA, 20 mM HEPES-NaOH pH 7.5, 135 mM NaCl, 0.1% NP40 alternative, 0.1 mg/ml BSA, 2 mM DTT, 1 mM EDTA, 10% glycerol, 22 °C, 20 min; footprinting the same with 10 nM DNA and no glycerol", "settings": "protein: recombinant; tags: GST tag removed with thrombin; label: 5'-32P on one strand; three-way Y-junction, three 20 bp arms"}, "D10 helicase (wild type) [6]": {"target": "T1, D10 helicase (wild type)", "assay": "EMSA with poly d(AT) competitor; no ATP/Mg2+; affinity near identical to Y20; bound but not unwound; EMSA: 0.1 nM DNA, 20 mM HEPES-NaOH pH 7.5, 135 mM NaCl, 0.1% NP40 alternative, 0.1 mg/ml BSA, 2 mM DTT, 1 mM EDTA, 10% glycerol, 22 °C, 20 min; footprinting the same with 10 nM DNA and no glycerol", "settings": "protein: recombinant; tags: GST tag removed with thrombin; label: 5'-32P; three-way Y-junction, three 20 bp arms"}},
  "note": "Residue numbers refer to the chain shown, from its start.",
  "data": [
    {"binder": "B1", "values": [
      {"measurement": "binding signal", "setting": "D10 helicase (wild type) [1]", "value": "~2 fold lower affinity than Y20"}
    ]},
    {"binder": "B2", "values": [
      {"measurement": "binding result", "setting": "D10 helicase (wild type) [2]; nick in strand C at the junction", "value": "binds"}
    ]},
    {"binder": "B3", "values": [
      {"measurement": "binding result", "setting": "D10 helicase (wild type) [3]", "value": "binds"}
    ]},
    {"binder": "B4", "values": [
      {"measurement": "binding result", "setting": "D10 R389N", "value": "binds"},
      {"measurement": "binding result", "setting": "D10 helicase (wild type) [4]", "value": "binds"}
    ]},
    {"binder": "B5", "values": [
      {"measurement": "binding result", "setting": "D10 helicase (wild type) [5]", "value": "binds"}
    ]},
    {"binder": "B6", "values": [
      {"measurement": "binding result", "setting": "D10 helicase (wild type) [2]; nick in strand B at the junction", "value": "binds"}
    ]},
    {"binder": "B7", "values": [
      {"measurement": "binding result", "setting": "D10 helicase (wild type) [6]", "value": "binds"}
    ]}
  ]
}
